In paper PMC3790000, “The Extended Transmembrane Orai1 N-terminal (ETON) Region Combines Binding Interface and Gate for Orai1 Activation by STIM1*^([image sbox.jpg])^♦” (The Journal of Biological Chemistry, 2013):
One block for each binder: values may come before it.

Target: T1, YFP-STIM1 233–485 (human, UniProt Q13586-1 233-485)
T1 construct: the YFP fluorescence is the read-out of the thermophoresis; also called STIM1 233–485 C-terminal fragment; slightly extended OASF fragment; source: HEK293, transfected, in lysate (supernatant after Nonidet P40 lysis)
Assay: MST; monolith NT.115 (Nanotemper); YFP-STIM1 233–485 (or free YFP) in HEK293 cell lysate kept constant, Orai1 peptide varied, up to 16 dilutions, 5 min incubation, glass capillaries; curve fitted to a one-site binding model
Conditions: one partner purified

T1 sequence (Q13586 233-485): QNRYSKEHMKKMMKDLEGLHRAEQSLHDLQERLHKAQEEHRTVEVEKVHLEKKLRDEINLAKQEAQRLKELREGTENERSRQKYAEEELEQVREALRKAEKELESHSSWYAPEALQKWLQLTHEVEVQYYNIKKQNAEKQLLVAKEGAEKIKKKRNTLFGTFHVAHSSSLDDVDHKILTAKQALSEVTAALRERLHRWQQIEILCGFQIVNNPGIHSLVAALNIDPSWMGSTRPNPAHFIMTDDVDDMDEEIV

Kd: > 4700 µM
B1: Orai1 N-terminal peptide aa77–91 (peptide, UniProt Q96D31-1 77-91, looked up)
peptide: RKLYLSRAKLKASSR
notes: also called Orai1 NT(aa77–91); Orai1 aa77–91; source: synthetic peptide, bought: peptide 2.0

Kd: 406 ± 68 µM
B2: Orai1 aa70–91 L74E/W76E N-terminal peptide (peptide, UniProt Q96D31-1 70-91, looked up)
peptide: SMQAESERKLYLSRAKLKASSR
notes: also called Orai1 NT(aa70–91 L74E/W76E); source: synthetic peptide, bought: peptide 2.0
